Assay results: patent US20240343811A1 (SHANDONG SIMCERE BIOPHARMACUTICAL, published 2024)
Substitutions are numbered along the chain they refer to. Where two headings read alike, the source gives them in different places. Each block holds one binder with its values, some of them ahead of it.

Assays:
[1] = target: T1, human CD16b (NA1), full length, on FlpinCHO cells (human, UniProt O75015 17-200); assay: FACS on FlpinCHO cells
T1 construct: also called FlpinCHO-human CD16b (NA1)
T1 chain: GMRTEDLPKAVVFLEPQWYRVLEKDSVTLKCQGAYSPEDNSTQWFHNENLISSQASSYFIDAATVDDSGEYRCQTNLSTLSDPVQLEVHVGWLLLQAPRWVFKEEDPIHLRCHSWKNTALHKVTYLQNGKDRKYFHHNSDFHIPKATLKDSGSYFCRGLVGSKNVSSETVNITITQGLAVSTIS
Method: (§1) The required cells were scale-up cultured in a T-75 cell culture flask to the logarithmic growth phase. The medium was aspirated, and the cells were washed twice with a PBS buffer and then digested with trypsin. After the digestion was terminated, the cells were washed twice with the PBS buffer. The cells were counted, and then the cell pellet was resuspended with a [PBS+2% (w/w) BSA] blocking solution to 2×10⁶ cells/ml, and added to a 96-well FACS reaction plate at 50 μl/well. […] 50 μl/well of the antibody to be detected was added at different concentrations, and incubated on ice for 1 hour. […] The mixture was centrifuged and washed 5 times with PBS, and FACS (FACS Canto II, purchased from BD Company) was used for detection and result analysis. Data analysis was performed by software (CellQuest) to obtain the mean fluorescence intensity (MFI) of the cells. Then, software (GraphPad Prism8) was used for analysis, data fitting and EC50 value calculation.
(§2) The binding of an antibody to be detected to FlpinCHO-human CD16b cells was detected according to the method of Example 3.1.

[2] = target: T2, human CD16b (NA2), full length, on FlpinCHO cells (human, UniProt O75015 17-200); assay: FACS on FlpinCHO cells
T2 construct: also called FlpinCHO-human CD16b (NA2)
T2 chain: T1 chain with R20S, N49S, D66N, V90I
Method: as §1, §2

[3] = target: T3, cynomolgus monkey CD16, full length, on FlpinCHO cells (cynomolgus monkey, UniProt Q8SPW2 17-254); assay: FACS on FlpinCHO cells
T3 construct: also called FlpinCHO-cyno CD16; Flipin CHO-cyno CD16
T3 sequence (Q8SPW2 other isoform, or with tags, fused parts or gaps limits assumed): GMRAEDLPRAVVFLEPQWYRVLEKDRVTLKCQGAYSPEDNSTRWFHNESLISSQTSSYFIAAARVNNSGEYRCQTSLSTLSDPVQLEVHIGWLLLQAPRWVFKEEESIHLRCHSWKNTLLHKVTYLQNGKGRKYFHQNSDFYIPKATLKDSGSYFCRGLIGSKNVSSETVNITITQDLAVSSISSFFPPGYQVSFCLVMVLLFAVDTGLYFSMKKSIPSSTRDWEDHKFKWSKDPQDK
Method: as §1
Flipin CHO-cyno CD16 cells were subjected to FACS detection and data analysis according to the method of Example 3.1.

[4] = target: T4, human CD16a (158V), full length, on cells (human, UniProt P08637 17-254); assay: FACS on FlpinCHO cells
T4 construct: also used as target for the bought Jurkat-NFAT reporter line stably expressing human CD16a (158V); also called FlpinCHO-human CD16a (158V); FlpinCHO-CD16a (158V)
Method: as §1
(§3) The binding of a humanized antibody to FlpinCHO-human CD16a cells was detected according to the method of Example 3.1.

[5] = target: T5, human CD16a (158F), full length, on FlpinCHO cells (human, UniProt P08637 17-254); assay: FACS on FlpinCHO cells
Method: as §1, §3

[6] = target: T4, human CD16a (158V), full length, on …; assay: cell-based or functional assay
[7] = target: T6, Human CD16a (158F)-his (human); assay: SPR (Biacore), antibody captured on Protein A
T6 construct: entry holds ECD, AVI tag, linker and His tag
Method in brief: (§4)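 Protein A–captured antibody was probed with CD16-his ECD in HBS-EP+ at 25 °C: five 2-fold dilutions from 200 nM, 240 s at 30 μL/min, dissociation up to 600 s. Glycine pH 1.5 regenerated the chip. Apparent KD came from a double-referenced 1:1 Langmuir fit.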

[8] = target: T4, human CD16a (158V), full length, on …; assay: FACS, biotinylated antibody, +10 mg/mL human immunoglobulin
Method: as §1, with “The” for “The required cells were scale-up cultured in a T-75 cell culture flask to the logarithmic growth phase. The”
(§5) An antibody to be detected was labeled in advance according to the instructions of a biotin labeling kit (EZ-Link™ NHS-PEG4 Biotinylation Kit, purchased from Thermofisher Scientific, catalog number: 21455). […] Detection was performed according to the method of Example 3.1, wherein the biotinylated antibody was detected with fluorescein APC-labeled Streptavidin (High Concentration) (purchased from Biolegend, catalog number: 405243).

[9] = target: T5, human CD16a (158F), full length, on …; assay: as above
Method: as §1, with “The” for “The required cells were scale-up cultured in a T-75 cell culture flask to the logarithmic growth phase. The”
as §5

[10] = target: T1, human CD16b (NA1), full length, on …; assay: FACS on FlpinCHO cells
Method: as §1, §2

[11] = target: T2, human CD16b (NA2), full length, on …; assay: FACS on FlpinCHO cells
Method: as §1, §2

[12] = target: T4, human CD16a (158V), full length, on …; assay: FACS, biotinylated antibody
Method: as §1, with “The” for “The required cells were scale-up cultured in a T-75 cell culture flask to the logarithmic growth phase. The”
as §5

[13] = target: T5, human CD16a (158F), full length, on …; assay: FACS, biotinylated antibody
Method: as §1, with “The” for “The required cells were scale-up cultured in a T-75 cell culture flask to the logarithmic growth phase. The”
as §5

[14] = target: T4, human CD16a (158V), full length, on …; assay: FACS on FlpinCHO cells; remark: listed apart in the source
Method: as §1

[15] = target: T5, human CD16a (158F), full length, on …; assay: FACS on FlpinCHO cells; remark: listed apart in the source
Method: as §1

[16] = target: T4, human CD16a (158V), full length, on …; assay: cell-based or functional assay; remark: listed apart in the source
[17] = target: T7, Human CD16b (NA1)-his (human); assay: SPR (Biacore), antibody captured on Protein A
T7 construct: entry holds ECD, linker, His tag and AVI tag
T7 chain: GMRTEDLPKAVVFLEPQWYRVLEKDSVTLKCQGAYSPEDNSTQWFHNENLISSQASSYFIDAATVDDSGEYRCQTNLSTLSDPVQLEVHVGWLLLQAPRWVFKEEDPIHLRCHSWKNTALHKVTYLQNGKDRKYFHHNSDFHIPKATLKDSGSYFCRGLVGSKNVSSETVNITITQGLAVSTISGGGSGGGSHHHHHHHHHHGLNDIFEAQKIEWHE
Method in brief: as §4

[18] = target: T8, Human CD16a (158V)-his (human); assay: SPR (Biacore), antibody captured on Protein A
T8 construct: entry holds ECD, AVI tag, linker and His tag
Method in brief: as §4

[19] = target: T9, CD16 on primary human NK cells (human, UniProt P08637 17-254); assay: FACS on human NK cells
T9 construct: whole, on cells; also called resting NK cells
Method: as §1
The binding of an antibody to be detected to freshly prepared human NK cells (Milestone Biotechnologies, catalog number: PB56-N-Custom) was detected according to the method of Example 3.1.

- EC50 [1]: 0.98 nM
- Maximum mean fluorescence intensity [1]: 52100
- Maximum mean fluorescence intensity [2]: 77300
- EC50 [3]: 0.44 nM
- Maximum mean fluorescence intensity [3]: 18300
- EC50 [4]: 0.32 nM
- Maximum mean fluorescence intensity [4]: 7920
- EC50 [5]: 0.31 nM
- Maximum mean fluorescence intensity [5]: 9010
- EC50, activation activity for Jurkat cell [6]: 0.01 nM
- Maximum fluorescence value [6]: 142000
- Kd [7]: 48.6 nM
- koff [7]: 0.0294 s⁻¹
- kon [7]: 605000 M⁻¹ s⁻¹
B2: VHH12-08 humanized VHH-Fc antibody (Fc fusion)
chain: EVQLVESGGGLVQPGGSLRLSCAASGITFSSYAMGWYRQAPGKQRELVAAINRFGLTNYADFVKGRFTISRVNAKNSLYLQMNSLRAEDTAVYYCNTGGVYSHPDYYTGTYWGQGTMVTVSSEPKSSDKTHTCPPCPAPEEFGGPSVFLFPPKPKDTLMISRTPEVTCVVVAVSHEDPEVKFNWYVDGVEVHNAKTKPREEQYNSTYRVVSVLTVLHQDWLNGKEYKCKVSNKALPAPIEKTISKAKGQPREPQVYTLPPSREEMTKNQVSLTCLVKGFYPSDIAVEWESNGQPENNYKTTPPVLDSDGSFFLYSKLTVDKSRWQQGNVFSCSVMHEALHNHYTQKSLSLSPGK

- EC50 [1]: 1.25 nM
- Maximum mean fluorescence intensity [1]: 45500
- Maximum mean fluorescence intensity [2]: 73200
- EC50 [3]: 0.68 nM
- Maximum mean fluorescence intensity [3]: 18500
- EC50 [4]: 0.48 nM
- Maximum mean fluorescence intensity [4]: 7950
- EC50 [5]: 0.46 nM
- Maximum mean fluorescence intensity [5]: 9180
- EC50, activation activity for Jurkat cell [6]: 0.03 nM
- Maximum fluorescence value [6]: 153000
- Kd [7]: 55.8 nM
- koff [7]: 0.032 s⁻¹
- kon [7]: 574000 M⁻¹ s⁻¹
B3: VHH12-07 humanized VHH-Fc antibody (Fc fusion)
chain: B2 chain with A60V, F62S, V72D, M117Q

Second part, the binder before the results:

B1: VHH12-04 humanized VHH-Fc antibody (Fc fusion)
chain: B2 chain with V72D
- EC50 [1]: 1.37 nM
- Maximum mean fluorescence intensity [1]: 47200
- Maximum mean fluorescence intensity [2]: 75400
- EC50 [3]: 0.64 nM
- Maximum mean fluorescence intensity [3]: 18300
- EC50 [4]: 0.47 nM
- Maximum mean fluorescence intensity [4]: 8090
- EC50 [5]: 0.47 nM
- Maximum mean fluorescence intensity [5]: 9410
- EC50, activation activity for Jurkat cell [6]: 0.01 nM
- Maximum fluorescence value [6]: 162000
- Kd [7]: 50.5 nM
- koff [7]: 0.0307 s⁻¹
- kon [7]: 607000 M⁻¹ s⁻¹

B4: VHH01 VHH-Fc antibody (Fc fusion)
chain: QVQLVESGGGLVQAGGSLRLSCVASRSTLTTYAVRWYRQAPGKQREWVAFISVDGNTNYPDSVKGRFIVSRDNAKNTVYLQMNSLKPEDTADYICRAGGQYWGQGTQVTVSSEPKSSDKTHTCPPCPAPEFEGGPSVFLFPPKPKDTLMISRTPEVTCVVVAVSHEDPEVKFNWYVDGVEVHNAKTKPREEQYNSTYRVVSVLTVLHQDWLNGKEYKCKVSNKALPAPIEKTISKAKGQPREPQVYTLPPSREEMTKNQVSLTCLVKGFYPSDIAVEWESNGQPENNYKTTPPVLDSDGSFFLYSKLTVDKSRWQQGNVFSCSVMHEALHNHYTQKSLSLSPGK
- EC50 [8]: 1.15 nM
- Maximum mean fluorescence intensity [8]: 9000
- EC50 [9]: 1.21 nM
- Maximum mean fluorescence intensity [9]: 6850
- EC50 [10]: 0.85 nM
- Maximum mean fluorescence intensity [10]: 49700
- Maximum mean fluorescence intensity [11]: 95
- binding result [11]: no binding (tested: 100 nM)
- EC50 [12]: 0.47 nM
- Maximum mean fluorescence intensity [12]: 6400
- EC50 [13]: 0.56 nM
- Maximum mean fluorescence intensity [13]: 4940
- EC50 [14]: 0.47 nM
- Maximum mean fluorescence intensity [14]: 5000
- EC50 [15]: 0.91 nM
- Maximum mean fluorescence intensity [15]: 4010
- EC50, activation activity for Jurkat cell [16]: 0.09 nM
- Maximum fluorescence value [16]: 178000
- Kd [7]: 108 nM
- koff [7]: 0.00831 s⁻¹
- kon [7]: 76600 M⁻¹ s⁻¹
- Kd [17]: 95.7 nM
- koff [17]: 0.0485 s⁻¹
- kon [17]: 507000 M⁻¹ s⁻¹
- Kd [18]: 27 nM
- koff [18]: 0.00373 s⁻¹
- kon [18]: 138000 M⁻¹ s⁻¹

B5: VHH04 VHH-Fc antibody (Fc fusion)
chain: B4 chain with A24G, R26S, S84N
- EC50 [8]: 1.51 nM
- Maximum mean fluorescence intensity [8]: 10400
- EC50 [9]: 1.51 nM
- Maximum mean fluorescence intensity [9]: 7580
- EC50 [10]: 1.33 nM
- Maximum mean fluorescence intensity [10]: 41400
- Maximum mean fluorescence intensity [11]: 351
- binding result [11]: no binding (tested: 100 nM)
- EC50 [19]: 0.74 nM
- Maximum mean fluorescence intensity [19]: 2430
- EC50 [12]: 0.65 nM
- Maximum mean fluorescence intensity [12]: 9200
- EC50 [13]: 0.32 nM
- Maximum mean fluorescence intensity [13]: 6160
- EC50 [14]: 0.68 nM
- Maximum mean fluorescence intensity [14]: 7660
- EC50 [15]: 0.66 nM
- Maximum mean fluorescence intensity [15]: 7240
- EC50, activation activity for Jurkat cell [16]: 0.03 nM
- Maximum fluorescence value [16]: 161000
- Kd [7]: 23.4 nM
- koff [7]: 0.00128 s⁻¹
- kon [7]: 54700 M⁻¹ s⁻¹
- Kd [17]: 21.6 nM
- koff [17]: 0.00265 s⁻¹
- kon [17]: 122000 M⁻¹ s⁻¹
- Kd [18]: 8.93 nM
- koff [18]: 0.000738 s⁻¹
- kon [18]: 82600 M⁻¹ s⁻¹
